In patent US6932973B2, “Peptides which stimulate the expression of the cytokines of inflammation and promote tissue regeneration” (Centre National de la Recherche Scientifique—CNRS, priority 1999, dated 2005):
Entries after “also recorded” stand apart in the source; their conditions may differ. Like-named read-outs stand apart in the source and are kept apart here.

How the values were obtained:
[1] = tested on: cytokines of inflammation (TNF-alpha, IL-1, IL-6); experiment: Expression/production of the cytokines of inflammation; type: cell-based, human
[2] = tested on: human mononucleated cells of the peripheral blood (PBMCs); experiment: Incorporation of tritiated thymidine in PBMCs (proliferation); type: cell-based; details: for activation response of PBMCs compared to the HARP protein: 1 ng/ml HARP, 1 μg/ml peptides (FIG. 6)
Experimental: The PBMCs were cultured for 7 days in RPMI culture medium containing 10% fetal calf serum in the absence of or in the presence of 1 ng/ml HARP protein or 1 μg/ml of peptides 1 or 2. The incorporation of tritiated thymidine was determined as described above.
Human mononucleated cells originating from different healthy donors were isolated from peripheral blood after centrifugation on a Ficoll-Hypaque pad (Pharmacia Biotech) in accordance with the manufacturer's instructions. The cells were washed then cultured in RPMI 1640 medium supplemented by 10% heat-inactivated fetal calf serum (56° C., 30 min), 100 units/ml of penicillin and 100 μg/ml of streptomycin. The cells were inoculated at the rate of 10^6 cells per ml in a 96-well (round bottoms) culture plate (Costar). They were cultured for 7 days in the presence or not of human recombinant HARP protein produced in E. coli at the concentration of 100 ng/ml. In the last 18 hours of culture, 1 μCi of tritiated thymidine was added to each of the wells. The radioactivity incorporated in the cell nuclei was then measured using a scintillation counter.

IL-6 = experiment: Expression of IL-6 by PBMCs (ELISA); type: cell-based, human
Experimental: (§1) Quantitative determination of these cytokines was performed using an ELISA test from R&D.
Quantitative determination of these cytokines was performed after 7 days of incubation using an ELISA test from R&D.
(§2) The cells were isolated from peripheral blood of normal subjects (blood donors) and collected in a Vacutainer tube containing EDTA. Mononucleated cells were separated by ficoll gradient, counted and adjusted to 10^6 per ml. The cells were incubated for 3 or 7 days at 37° C. in humid atmosphere with 5% CO2 in the presence of variable concentrations of HARP ranging from 1 to 1000 ng/ml or other peptides which are mentioned in the legends of the figures.

[3] = tested on: PBMCs treated by tetanus toxin
HUVEC cells = experiment: Mitogenic activity on HUVEC cells (cell counting); type: cell-based; details: wells coated with 100 ng/ml, 72 hours of culture, triplicate
Experimental: The cells used were HUVEC cells (Clonetics) used between passages 1 to 5. Each of the wells of a 48-well culture plate (Costar) was incubated for 1 night at 4° C. with a solution of HARP (100 ng/ml), of purified HARP peptide (100 ng/ml) or solely the negative control buffer. After rinsing the wells with a PBS solution, the cells were inoculated at the rate of 2×10^4 cells per cm^2 in the DMEM culture medium containing 2% of fetal calf serum. Each quantitative determination was performed in triplicate.
Induction of cellular proliferation was assessed by counting the cells after 72 hours of culture.

soleus muscle = type: in vivo, Wistar rat; details: 1 μg injected in 50 μl into crushed rat soleus, 4 days
[4] = tested on: lymphoid cells (PBMC culture); experiment: Determination of the amplified lymphoid cell population in a PBMC culture; type: cell-based, human; details: HARP 1 μg/ml, PBMC culture 5 days
Experimental: as §2, with “5” for “3 or 7”, “of” for “of variable concentrations of”, “HARP” for “HARP ranging from 1 to 1000 ng/ml”, “peptides at concentrations” for “peptides”, “each” for “the legends”, “Examples described.” for “figures.”
Table II presents the effects of the HARP molecule tested at a concentration of 1 μg/ml on the proliferation of lymphoid cells.

IL-1β = experiment: Expression of IL-1 by PBMCs (ELISA); type: cell-based, human; details: HARP 1 to 1000 ng/ml, 3 or 7 days
Experimental: as §1, §2

TNF-α = experiment: Expression of TNF-α by PBMCs (ELISA); type: cell-based, human; details: HARP 1 to 1000 ng/ml, 3 or 7 days
Experimental: as §1, §2

IL-2 = IL-2 levels after incubation of PBMCs with HARP; type: cell-based, human; details: after incubation of PBMCs with HARP factor
[5] = tested on: PBMCs treated by an anti-CD3
NIH 3T3 cells = details: read-out: Kd of strong affinity HARP binding sites; cited from earlier work
syndecan-3 = syndecan-3 (Rattus norvegicus, UniProt P33671); details: read-out: apparent Kd; cited from earlier work
phosphacan = phosphacan (Rattus norvegicus, UniProt Q62656); details: cited from earlier work
[6] = added to PBMCs, result not shown
[7] = peptides, 7 days of incubation (FIG. 10)
[8] = 7 days, anti-CD3 1/100, HARP 1 ng/ml

phosphacan, sequence (Q62656 25-1616 isoform Q62656-3 limits assumed): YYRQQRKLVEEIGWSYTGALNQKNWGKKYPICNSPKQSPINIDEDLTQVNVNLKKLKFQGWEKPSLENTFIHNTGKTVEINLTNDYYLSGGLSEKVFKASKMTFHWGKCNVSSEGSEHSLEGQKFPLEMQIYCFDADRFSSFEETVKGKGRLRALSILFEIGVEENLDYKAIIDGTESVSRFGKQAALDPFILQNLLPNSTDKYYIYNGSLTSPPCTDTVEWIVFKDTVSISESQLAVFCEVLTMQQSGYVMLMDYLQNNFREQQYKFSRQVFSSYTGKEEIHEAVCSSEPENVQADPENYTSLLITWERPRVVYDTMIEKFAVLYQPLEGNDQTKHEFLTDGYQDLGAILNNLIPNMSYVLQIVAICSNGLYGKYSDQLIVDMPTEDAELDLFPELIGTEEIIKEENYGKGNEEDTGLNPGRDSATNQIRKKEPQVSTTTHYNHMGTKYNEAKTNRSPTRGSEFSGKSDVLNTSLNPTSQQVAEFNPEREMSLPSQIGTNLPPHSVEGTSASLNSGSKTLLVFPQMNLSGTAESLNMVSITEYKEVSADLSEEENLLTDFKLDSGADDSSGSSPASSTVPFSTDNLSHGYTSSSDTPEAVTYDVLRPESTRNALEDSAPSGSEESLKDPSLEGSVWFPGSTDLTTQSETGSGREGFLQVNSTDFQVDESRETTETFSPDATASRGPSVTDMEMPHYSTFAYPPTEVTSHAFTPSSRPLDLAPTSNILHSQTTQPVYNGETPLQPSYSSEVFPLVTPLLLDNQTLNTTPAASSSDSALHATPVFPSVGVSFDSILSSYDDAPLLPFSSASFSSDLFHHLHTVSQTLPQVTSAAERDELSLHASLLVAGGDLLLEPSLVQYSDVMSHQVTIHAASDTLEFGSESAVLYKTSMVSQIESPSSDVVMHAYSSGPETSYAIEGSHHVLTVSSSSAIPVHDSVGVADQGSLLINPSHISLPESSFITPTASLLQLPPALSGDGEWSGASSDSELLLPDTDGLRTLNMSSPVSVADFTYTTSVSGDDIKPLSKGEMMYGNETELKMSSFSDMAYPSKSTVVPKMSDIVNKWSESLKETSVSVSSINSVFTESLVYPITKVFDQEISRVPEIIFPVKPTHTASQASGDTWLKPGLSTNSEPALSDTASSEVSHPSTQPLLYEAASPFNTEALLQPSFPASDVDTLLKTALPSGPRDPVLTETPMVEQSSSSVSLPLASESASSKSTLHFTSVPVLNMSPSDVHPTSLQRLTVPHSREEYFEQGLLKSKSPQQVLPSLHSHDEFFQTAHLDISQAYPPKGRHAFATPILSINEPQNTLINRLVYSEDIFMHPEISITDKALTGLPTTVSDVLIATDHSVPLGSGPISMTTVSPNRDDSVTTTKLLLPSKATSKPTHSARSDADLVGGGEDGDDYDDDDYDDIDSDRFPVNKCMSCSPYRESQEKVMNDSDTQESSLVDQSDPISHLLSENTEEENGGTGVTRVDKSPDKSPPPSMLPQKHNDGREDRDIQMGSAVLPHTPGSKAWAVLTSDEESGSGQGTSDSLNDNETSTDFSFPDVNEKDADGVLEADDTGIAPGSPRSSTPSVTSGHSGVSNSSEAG
syndecan-3, sequence (P33671 45-442): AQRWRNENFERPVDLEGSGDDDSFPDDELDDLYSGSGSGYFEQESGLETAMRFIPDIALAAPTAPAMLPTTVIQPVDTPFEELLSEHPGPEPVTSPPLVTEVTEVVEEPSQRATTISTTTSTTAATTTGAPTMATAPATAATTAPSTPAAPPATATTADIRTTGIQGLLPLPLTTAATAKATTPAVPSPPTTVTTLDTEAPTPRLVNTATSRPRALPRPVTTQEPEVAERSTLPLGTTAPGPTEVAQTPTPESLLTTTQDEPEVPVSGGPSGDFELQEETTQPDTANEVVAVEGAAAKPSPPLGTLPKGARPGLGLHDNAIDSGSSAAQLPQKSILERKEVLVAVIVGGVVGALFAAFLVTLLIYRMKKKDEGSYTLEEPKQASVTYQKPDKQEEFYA

Question: For “angiogenin: molecule presenting a homologous protein domain [reference compound]”, which “expression of the inflammatory cytokines” value [1, 6] is on record?
Answer: Augmentation of the expression

Question: Which “activation response of PBMCs compared to the HARP protein” value ([2]; 7 days) does the source give for “NH2-AESKKKKKEGKKQEKMLD-COOH (H-AESKKKKKEGKKQEKMLD-OH) [Peptide 2, peptide corresponding to the terminal COOH part of HARP; 18 amino acids]” here?
Answer: close to two times higher

Question: What about the “expression of IL-6” value (IL-6; [7]) of the same molecule?
Answer: capable of stimulating the expression of IL-6

Question: What does the source list for tetanus toxin [reference compound]?
Answer: incorporated tritiated thymidine [3]: 43,000±500 cpm; stimulation of incorporation of tritiated thymidine in relation to the control [3]: 71 times

Question: Which Number of cells (HUVEC cells) does the source give for “GKKEKPEKKVKKSD [HARP peptide, N terminal peptide (amino acids 1-14) of human HARP obtained by recombination in a eukaryote expression system]” here?
Answer: 12,000 ± 14,000

Question: Which results are given for “NH2-AEAGKKEKPEKKVKKSDCGEW-COOH (H-AEAGKKEKPEKKVKKSDCGEW-OH) [Peptide 1]”?
Answer: activation response of PBMCs compared to the HARP protein ([2]; 7 days): close to half that of HARP; activation response of PBMCs compared to the control ([2]; 7 days, 1 μg/ml peptide (FIG. 6)): more than two times higher; expression of IL-6 (IL-6; [7]): capable of stimulating the expression of IL-6; number of mononucleated cells in treated muscle versus peptide 2 or PBS (soleus muscle): much higher

B1: tat protein: molecule presenting a homologous protein domain (protein, UniProt P04608 1-86, looked up)
Protein Tat: MEPVDPRLEPWKHPGSQPKTACTNCYCKKCCFHCQVCFITKALGISYGRKKRRQRRRAHQNSQTHQASLSKQPTSQPRGDPTGPKE
Question: Which “expression of the inflammatory cytokines” value [1, 6] does the source give for B1 here?
Answer: Augmentation of the expression

B2: MK: protein that exhibits 50% homology in amino acids with HARP (protein, UniProt P21741 21-143, looked up)
Midkine: VAKKKDKVKKGGPGSECAEWAWGPCTPSSKDCGVGFREGTCGAQTQRIRCRVPCNWKKEFGADCKYKFENWGACDGGTGTKVRQGTLKKARYNAQCQETIRVTKPCTPKTKAKAKAKKGKGKD
Question: Which “stimulation of tritiated thymidine incorporation in PBMCs” value ([2]; MK 0.1 to 500 ng/ml) does the source give for B2 here?
Answer: no induction; also recorded: No stimulation

B3: HARP: angiogenic growth factor; human recombinant HARP protein produced in E. coli (protein, UniProt P21246 33-168, looked up)
Pleiotrophin: GKKEKPEKKVKKSDCGEWQWSVCVPTSGDCGLGTREGTRTGAECKQTMKTQRCKIPCNWKKQFGAECKYQFQAWGECDLNTALKTRTGSLKRALHNAECQKTVTISKPCGKLTKPKPQAESKKKKKEGKKQEKMLD
Question: With B3 as the molecule, how does the “concentration at which active on the proliferation of lymphocytes” value [2] read?
Answer: ~10 pM

Question: And the “increase in the number of cells in relation to the untreated control” value ([2]; HARP 100 ng/ml, experiment no. 7)?
Answer: 2.9 times

Question: And the “HARP concentration at which maximum effect is attained” value ([2]; dose-response 0.1 to 500 ng/ml)?
Answer: 1 ng/mL

Question: And the CCD2 positive cells [4]?
Answer: 95%

Question: And the “CCD4+ CD45RA+ cells” value [4]?
Answer: 15%

Question: What about the “CCD4+ CD45RO+ cells” value [4] of the same molecule?
Answer: 49%

Question: And the CCD4 positive cells [4]?
Answer: 68%

Question: What about the CCD8 positive cells [4] of the same molecule?
Answer: 22%

Question: What about the CCD16/56 positive cells [4] of the same molecule?
Answer: 18%

Question: And the CCD19 positive cells [4]?
Answer: 4%

Question: What about the CCD25 positive cells [4] of the same molecule?
Answer: 47%

Question: What about the CCD45RA positive cells [4] of the same molecule?
Answer: 34%

Question: What about the CCD45RO positive cells [4] of the same molecule?
Answer: 64%

Question: What about the “Variation of CCD4+ CD45RA+ versus control” value [4] of the same molecule?
Answer: −31%

Question: What about the “Variation of CCD4+ CD45RO+ versus control” value [4] of the same molecule?
Answer: +133%

Question: And the “Variation of CCD45RO versus control” value [4]?
Answer: +113%

Question: What about the “RA/RO (CCD4+ CD45RA+ / CCD4+ CD45RO+)” value ([4]; CD4+ cells) of the same molecule?
Answer: 0.3 ratio

Question: And the “RA/RO (CCD45RA / CCD45RO)” value ([4]; all cells)?
Answer: 0.5 ratio

Question: And the “expression of IL-1β” value (IL-1β)?
Answer: capable of inducing in a dose-dependent manner

Question: And the “expression of TNF-α” value (TNF-α)?
Answer: capable of inducing in a dose-dependent manner

Question: What about the “expression of IL-6” value (IL-6; HARP 1 to 1000 ng/ml, 3 or 7 days) of the same molecule?
Answer: capable of inducing in a dose-dependent manner

Question: And the “expression of the inflammatory cytokines” value ([1]; HARP molecule denatured)?
Answer: No expression

Question: What about the “stimulation of the production of cytokines of inflammation” value ([1]; in vitro and in vivo) of the same molecule?
Answer: more than 100 times

Question: And the “IL-2 levels” value (IL-2)?
Answer: no increase

Question: What about the Number of cells (HUVEC cells) of the same molecule?
Answer: 129,000 ± 26,000

Question: What about the incorporated tritiated thymidine [5, 8] of the same molecule?
Answer: 3500 cpm

Question: And the “stimulation of incorporation of tritiated thymidine in relation to the control” value [5, 8]?
Answer: 5.8 times

Question: And the “incorporation of thymidine” value ([5]; HARP 10 and 100 ng/ml in the presence of anti-CD3)?
Answer: a weaker and a very low incorporation

Question: What about the cellular mortality ([5]; HARP alone at 10 and 100 ng/ml) of the same molecule?
Answer: not seen

Question: And the cell mortality [3]?
Answer: high cell mortality

Question: And the incorporated tritiated thymidine ([3]; 7 days)?
Answer: 3500±200 cpm

Question: And the “stimulation of incorporation of tritiated thymidine in relation to the control” value ([3]; 7 days)?
Answer: 5.8 times

Question: What about the cell death (HIV; HARP 100 ng/ml, PBMCs from an AIDS patient) of the same molecule?
Answer: noteworthy cell death

Question: And the “HARP concentration at which production of viral antigen p24 is maximal” value (HIV; PBMCs from an AIDS patient (CD4<200/mm^3), 3 days, HARP 0.1-100 ng/ml)?
Answer: 1 ng/mL

Question: What about the Kd (NIH 3T3 cells) of the same molecule?
Answer: 0.6 nM

Question: What about the Kd (syndecan-3) of the same molecule?
Answer: 0.8 nM

Question: What about the Kd (phosphacan; read-out: Kd, binding sites of strong affinity) of the same molecule?
Answer: 0.25 nM

Question: And the Kd (phosphacan; read-out: Kd, binding sites of weak affinity)?
Answer: 3 nM
